In the nanobody polyreactivity screen of Harvey et al. (2022):

Assay: yeast display, Sf9 membrane polyspecificity reagent, FACS + sequencing; frameworks hold sequencing errors
Procedure, shortened: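 Galactose-induced (36–48 hours) yeast carrying a synthetic nanobody display library were exposed to 10% biotinylated, detergent-solubilized Sf9 membrane reagent at 4 °C for 1 hour. FACS followed streptavidin microbead enrichment, using low and high (top ~1%) gates for expression (anti-HA) and reagent binding (streptavidin). Colony PCR, MiSeq 2 × 250 sequencing and CDR-length filtering followed. Labels for polyreactivity reflect the gate of origin.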

Row | Sequence | polyreactivity (PSR sort gate)
1 | QVQLVESGGGLVQAGGSLRLSCAASGSIFWSNAMGWYRQAPGKEREFVAAITWSGDNTYYADSVKGRFTISRDNAKNTVYLQMNSLKPEDTAVYYCNTEWGLFYDWTVLHIYLHGYYYWGQGTQVTVSS | low polyreactivity
2 | QVQLVASGGRLVQAGGSLRLSCASSGSIFGWYAMGWYRQAPGKERELVAVITSGGSTYYADSVKGRFTISRDNAKNTVYLQMNSLKPVDTAVYYCNARYHAGYKGYNYWGQGTQVTVSS | high polyreactivity
3 | QVQLVESGGGLVQAGGSLRLSCASSGLTFWRYVMGWYRQAPGKESELVATISIGGSTNYADSVKGRFTISRDNAKNTVYLQMNSLKPEDTAVYYCAAKFRGDVFPYYYWGQGTQVTVSS | high polyreactivity
4 | QVQLVESGGGLVQAGGSLRLSCAASGRTFDLYAMGWYRQAPGKERELVARITNIDDSTYYADSVKGRFTISRDYAKNTVYLQMNSLKPEDTAVYYCNAASYSRGPARYDYWGQGTQVTVSS | high polyreactivity
5 | QVQLVESGGGLVQAGGSLRLSCAASGSIFDSNAMGWYRQAPGKERELVASITSDGDTYYADSVKGRFTISRDNAKNTVYLQMNSLKPEVTAVYYCAAYVPYSGLDYWGQGTQVTVSS | low polyreactivity
6 | QGQHVESGGGLVQAGGSLRLSCAASGFTFAHNAMGWDRQAPGKETDFVAAITSRGGSTYYADSVKGRFTISRDNAKNSVYFQMYSPNPEDTAVYYCAADDYIYTVYSYTYQYWGQGTHVTVSS | low polyreactivity
7 | QVQLVESGGALVQAGGSLRLSCAASGRTFGHNAMGCSRQAPGKEREFVAAITYSGVRTFYADSVKGRFTISRDNAQNTVYLQMNSLKPEDTAVYYCATDWRRDYDYWGQGTQVTVSS | low polyreactivity
8 | QVQLVESGGGLVQAGGSLRLSCAASGRTFGGNAMGWDRQAPGKERELLAAITGRGGSTYYADSLKGRFTISRDNAKNTVYLQMNSLKPEDTAVYYCNADGSAYIEDGYDYWGQGTQVTVSS | low polyreactivity
9 | QVQLVESGGGLVQAGGSLRLSCAASGLIFWAYAMGWYRQAPGKERELVAGISVSGGSTYYADSVKGRFTISRDNAKNTVYLQMNSLKPEDTAVYYCAARLPRTRYWDDYWGQGTQVTVSS | high polyreactivity
10 | QVQLVESGGCLVQAGGSLRLSCDASGGIFVSYAMGWYRQAPRKDRELVAAITSGGGTSYADSVKGRFTISRDNAKNTVYLQMNSLKPEDTAVYYCNADGYLAERFVIRLDEYRDYDYWGQGTQVTVSS | low polyreactivity
11 | QFQLVESGGGLVQAGGSLRLSCAASGSIFYTYVMGWYRQAPGKERELVAVISWSSTSTYYADSVKGRFTISRDNAKNTVYLQMNSLKPEDTAVYYCAAGVHRYRPGHGYDDGGYYWGQGTQVTVSS | low polyreactivity
12 | QVQLVESGGGLVQAGGSLRLSCAASGFIFTYYAMGWYRQAPGKERELVAAISSSGGRTAYADSVKGRFTISRDNAKNTVYLQMNSLKPEDTAVYFCNARGTYRVANYDYWGQGTQVTVSS | high polyreactivity
13 | QVQLVESGGGLVQAGGSLRLSCAASGRTFCRYPMGWYRQAPGKERELVAAISSSGITYYAESVKGRFTISRDNAKNTVYLQMNSLKPEDTEVYYCAVRWGRGFWGQGTQVTVSS | high polyreactivity
14 | QVQLEESGGGLVQAGGILRLSCAASGSMFVAYTMGWYRQEPGKERELVAAISRGGSTNYADSVKGRFTISRDNAKTTVYLQMNSLKPEDTAVYYCAAKVWDGQLLYYWGQGTQVTVSS | low polyreactivity
15 | QVQLVESGGGLVQAGGSLRLSCAASGSISIKNAMGWYSQAPGKERELVATITYNGGSTYYADSVKGRFTISRDNAKNTVYLQMNSLKPEDTAVYYCSAGYLYYAEYDYWGQGTQVTVSS | low polyreactivity
16 | QVQLVESGGGLVQAGGSLRLSCAASGRIFKPNAMGWYRQAPVKEREFVARITRNTGSTYYADSVKGRFTISRDNAKNTVYLQMNSLKPEDTAVYYCAAGAPSYYYYWGQGTQVTVSS | high polyreactivity
17 | QVQLVESGGGLVQAGGSLRLSCAASGRIFQYYAMGRYGQAPGKERELVARISSRGGSTYYADSVKGRFTISRDNAKNTVYLQMNSLKPEDTAVYYCNTRWYSSYYQPSYNYWGQGTQVTVSS | high polyreactivity
18 | HVQLVESGGGLVQAGGSLRISCAASGRTFGHYAMGWNRQAPGKQRELVAVISGRNGDSTYYADSVKGRFTISRDNAKNTVYLQMNSLKPVYTAVYYCAAYKPWEYDYWGQGTEVTVSS | low polyreactivity
19 | QVQLVESGGGLVQAGGSLRLSCAASGRITQYTMGWYRQAPGKERELVASIRKSGSTHYADSVKGRFTISRDNAKNTVYLQMNSLKPEDTAVYYCAARTYNPLTGYGYWGQGTQVTVSS | high polyreactivity
20 | QVQLVESGGGLVQAGGSLRLSCAASGFTFSRNTMGWYSQAPGKERELVARISASGGSTYFADSVKGRITISRDNAKNTVYLQMTSLKQEATAVYYCAAVYRRYGGSRYDYWGQGTQVTVSS | high polyreactivity
21 | QVQLGETGGGLVQAGGSLRLSCAATGSIFRYNAMGWYRQAPGKERELVAAISGRGTSTYYADSVKGRFTISRDNAKNTVYLQMNSLKPEDTAVYYCAAVYFSSFLVEYYYWGQGTQVTVSS | high polyreactivity
22 | QVPLVESGGGLVQAGGSLRISCAASFRYNTMGWYRQAPGKERELVAAISGSGSRTYYADSVKGRFTISRDNAKITVYLQMNSLKPEDTAVFYCAALSYRNSEVGTSRGDYWGQGTQVTVSS | high polyreactivity

Row | Sequence | polyreactivity (PSR sort gate)
23 | QVQLVESGGGLVQAGGSLRLSCAASGTIFAPNAMGWYRQAPGKERELVAAISRSGGRTYYADSVKGRFTISRDNAKNTVYLQMNSLKPEDTAVYYCAADYKHQRTYGSWGQGTQVTVSS | high polyreactivity
24 | QVQLVESGGGLVQAGGSLRLSCAASGYIFSYYAMGWYRQAPGKERELVAAITSSGGRTYYADSVKGRFTISRDNAKNTVYLQMNSLKPEDTAVYYCNRDYSSYDTEDYWGQGTQVTVSS | high polyreactivity
25 | QVQLVESGGGLVQAGGSLRLSCAASGRTFGTYAMGWYRQAPGKERELVAAIRSNAGSTYYADSVKGRFTISRDNAKNTVYLQMNSLKPEDTAVYYCAKSYRSSRRYNYWGQGTQVTVSS | high polyreactivity
26 | QVQLVESGGGLVQAGGSLRLSCAASGYTFVTNAMGWYRQAPGKERELVAAITTVGSTNYADSVKGRFTISRDNAKNTVYLQMNSLKPEDTAVYYCNANWYEWYDWGQGTQVTVSS | low polyreactivity
27 | QVQLVESGGRLVQAGGSLRLSCAASGSIFTPYAMGCYIQAPGKERELVAAIRSVVRTNYADSVKGRFTISRDNAKNTVYLQLNSLNPEDTAVYYCATAVYPDFEYDSWGQGTQVTVSS | low polyreactivity
28 | QVQLVESGGGKVQAGGSLRLSCAASGRIFYLNAMGWYRQAPGKEREFVAAITRNGGNTYYADSVKGRFTISRDNAKNTVYLQMNSLKPEDTAVYYCNAKYWPFSRWYYYWGQGTQVTVSS | high polyreactivity
29 | QVQLVESAGGLVQAGGSLRLSSAASAFTFYSNAMGWYRHAPGKEREFVAAGSTYYADSVKGRFTISRDNAKNTVYLQMNSLKPEDTAVYYCAADSYDVSRRYEYEYWGEGTQVTVSS | low polyreactivity
30 | QVQLVESGGGLVQAGGSLRLSCAASGRIFSYYAMGWYRQAPGKERELVASISTSSGSTYYADSVKGRFTISRDNAKNTVYLQMNSLKPEDTAVYYCNADYTGYYRWRNDDYWGQGTQVTVSS | high polyreactivity
31 | QVQLVESGGGLVQAGGSLRLSCAAYGSTFASYSMGWYRQAPGKERELVADISKSGTRTYYADSVKGRFTISRDNAKNTVYLQMNSLKPEDTAVYYCATGQYLRTSRFYYWGHGTQVTVSS | high polyreactivity
32 | QVQLVESGGGLVQAGGSLRLSCAASGLTFGAYAMGWYRQAPGKEREFVAAITYSGGSTNYADSVKGRFTISRDNAKNTVYLQMNSLKPEDTAVYSCNAGYYSPWAFYPYDYWGQGTQVTVSS | high polyreactivity
33 | QVQLVESGGGLVQAGGSLRLSCAASGRIFRLYAMGWYRQAPGKERELVAAISKSGGSTYYADSVKGRFTFSRDNAKNTVYLQMNSLKPEDTAVYYCAADYRTHGGYEGTFDYWGQGTQVTVSS | low polyreactivity
34 | QVQLVESGGGLVQAGGSLRLSCAASGRIFFSNAMGWYRQAPGKERELVASITGGDDTNYADSVKGRFTISRDNAKNTVYLQMNSLKPEDTAVYYCAARAIPSYRWVYRFAPKYDYWGQGTQVTVSS | low polyreactivity
35 | QVQLQESGGGLVQAGGSLRLSCAASGTISPLPAMGWYRQAPGKEREFVAGIDTGAITNYADSVKGRFTISRDNGKNTVYLQMNSLNPEDTAVYYCAVFRGAYDYYEGYYTYWGQGTQVTVSS | low polyreactivity
36 | QVQLVESGGGLVQAGGSLRLSCAASGSTSRVYAMGWYRQAPGKERELVAAINKSGTRTYYADSVKGRFTISRDNAKNTVYLQMNSLKPEDTAVYYCAADQGTYGYGGFYYWGQGTQVTVSS | high polyreactivity
37 | QVQLVESGGGLVQAGGSLRLSCAASGSIFTTYAMGWYRQAPGKERELVAVISRRGGSTYYADSVKGRFTISRDNAKNTVYLQMNSLTPEDTADYYCNAYTYTYHRDHTDRYNYWGQGTQVTVSS | high polyreactivity
38 | QVQLVESGGGLVQAGGSLRLSCAASGRIFRYNAMGWYRQAPGKGRELVAAITWDGGSTYYADSVKGRFTISRDNAKYTVYLQMNSLKPEYTAVYYCKAVTRSYYSDYYWGQGTQVTVSS | high polyreactivity
39 | QVQLVESGGGLVQAGGSLRLSCAASGIIFYYYAMGWYRQAPGKERELVAAIRSGGSTNYADSVKGRFTISRDNAKNTVYLQMNSLKPEDTAVYYCATRHDYLRAHYGYGSWGQGTQVTVSS | low polyreactivity
40 | QVQLVESGGGLVQAGGSLRLSCAASGNIFFSNAMGWYRQAPGKERELVASISQSGGSTYYADSVKGRFTISRDNAKNTVYLQMNSLKPEDTAVFYCAATQVRRGPAWGRDYWGQGTQVTVSS | low polyreactivity
41 | QVQLVESGGGLVQAGGSLRLSCAASGRTSLAYAMGWYRQAPGKERELVAAISRTGSTYYADSVKGRFTISRDNAKNTVYLQMNSLKPEDTAVYYCNAKRRPYSVRSDYWGQGTQVTVSS | high polyreactivity
42 | QVQLVESGGGLVQAGGSLRLSCAASGRTFAGNAMGWYRQATGKERELVASITWTGGRTYYADSVKGRFTISRDNAKNTVYLQMNSLKPEDTAVYYCAARPDYYYFRGDYWGQGTQVTVSS | high polyreactivity
43 | QVQLVESGGGIVQAGGSLRLSCAASGRIFNRYAMGWYRQAPGKKWELVATISVSGANTYYADSVKGRFTISRDNAKNTVYLQMNSLKPEDTAVYSCNVKRGTIGGYYYWGQVTQVTVSS | high polyreactivity
